# Data taken from patent US20020151463A1 (UT BATTELLE, published 2002).
# Tests used:
# human MSH receptor = human MSH receptor (human, UniProt Q01726 1-317); experiment: cell-based or functional assay
# murine MSH receptor [1] = molecular target: T1, murine MSH receptor (mouse, UniProt Q01727 1-315); experiment: cell-based or functional assay
# murine MSH receptor [2] = molecular target: T1, murine MSH receptor; experiment: competition binding against 125I-ACTH1-39 on Cloudman M-3 melanoma cells, single-site model
# Method: To investigate this further, the ability of the protein to compete with another melanocortin peptide for binding to the mouse MSH-R was examined. […] Competition binding studies were performed with ¹²⁵I-labelled ACTH₁₋₃₉ and the M-3 subclone of the Cloudman murine melanoma cell line.
# T1 sequence (Q01727 whole entry): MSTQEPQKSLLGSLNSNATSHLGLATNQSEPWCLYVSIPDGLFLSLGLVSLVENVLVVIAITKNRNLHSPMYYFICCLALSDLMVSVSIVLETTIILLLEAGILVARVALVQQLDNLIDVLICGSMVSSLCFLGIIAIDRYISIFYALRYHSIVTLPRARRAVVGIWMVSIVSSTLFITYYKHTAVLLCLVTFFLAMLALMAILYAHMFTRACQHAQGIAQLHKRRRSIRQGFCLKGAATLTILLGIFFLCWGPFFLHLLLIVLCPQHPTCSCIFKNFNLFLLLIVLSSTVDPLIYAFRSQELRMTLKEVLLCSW
# human MSH receptor, sequence (Q01726 whole entry): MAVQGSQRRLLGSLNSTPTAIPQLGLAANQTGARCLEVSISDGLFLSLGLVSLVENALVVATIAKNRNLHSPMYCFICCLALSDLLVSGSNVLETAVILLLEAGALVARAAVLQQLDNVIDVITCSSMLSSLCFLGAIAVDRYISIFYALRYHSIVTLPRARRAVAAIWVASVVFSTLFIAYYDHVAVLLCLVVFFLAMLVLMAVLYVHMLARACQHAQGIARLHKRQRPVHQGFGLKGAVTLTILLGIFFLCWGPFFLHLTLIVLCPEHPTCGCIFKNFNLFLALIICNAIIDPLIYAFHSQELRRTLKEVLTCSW
binder,measurement,setting,value
recombinant human agouti protein (ligand) HLPPEEKLRDDRSLRSNSSVNLLDVPSVSIVALNKKSKQIGRKAAEKKRSSKKEASMKKVVRPRTPLSAPCVATRNSCKPPAPACCDPCASCQCRFFRSACSCRVLSLNC,EC50 of the [Ca^2+]i dose response in the HEK-293 MC1R line,human MSH receptor,~18 nM
"recombinant murine agouti protein (ligand, Full-length mouse agouti cDNA expressed by baculovirus in T. ni cells; also called mouse agouti; agouti polypeptide) HLALEETLGDDRSLRSNSSMNSLDFSSVSIVALNKKSKKISRKEAEKRKRSSKKKASMKKVARPPPPSPCVATRDSCKPPAPACCDPCASCQCRFFGSACTCRVLNPNC","apparent Ki (antagonism of α-MSH-stimulated adenylyl cyclase, four independent studies)",murine MSH receptor [1],0.32 nM
same,IC50,murine MSH receptor [2],1.2 ng/mL
same,Ki,murine MSH receptor [2],0.66 nM
